Laboratory results as given in patent US20170015742A1 (published 2017).
Changes are numbered by the printed parent chain.

B1: CODV012 (bispecific antibody, human IgG1, kappa, L234A L235A)
heavy: EVQLVQSGSELKKPGASVKVSCKASGYTFTNYGMYWVRQAPGQGLEWMGWINTETGKPTYADDFKGRFVFSLDTSVSTAYLQISSLKAEDTAVYYCARTNYYYRSYIFYFDYWGQGTMVTVSSGGGGSGGGEFVLTQSPGTLSLSPGERATLSCERSSGDIGDSYVSWYQQKPGQAPRLVIYADDQRPSGIPDRFSGSGSGTDFTLTISRLEPEDFAVYYCQSYDINIDIVFGGGTKVEIKGGGSGASTKGPSVFPLAPSSKSTSGGTAALGCLVKDYFPEPVTVSWNSGALTSGVHTFPAVLQSSGLYSLSSVVTVPSSSLGTQTYICNVNHKPSNTKVDKKVEPKSCDKTHTCPPCPAPEAAGGPSVFLFPPKPKDTLMISRTPEVTCVVVDVSHEDPEVKFNWYVDGVEVHNAKTKPREEQYNSTYRVVSVLTVLHQDWLNGKEYKCKVSNKALPAPIEKTISKAKGQPREPQVYTLPPSREEMTKNQVSLTCLVKGFYPSDIAVEWESNGQPENNYKTTPPVLDSDGSFFLYSKLTVDKSRWQQGNVFSCSVMHEALHNAYTQKSLSLSPGK
light: EVTLRESGPALVKPTQTLTLTCTFSGFSLSTYGMGVGWIRQPPGKALEWLANIWWDDDKYYNPSLKNRLTISKDTSKNQVVLTMTNMDPVDTATYYCARIESIGTTYSFDYWGQGTMVTVSSGGGGSGGGDTVLTQSPATLSLSPGERATLSCRASESVSTHMHWYQQKPGQAPRLLIYGASNLESGVPARFSGSGSGTDFTLTISSLEPEDFAVYFCQQSWNDPFTFGQGTKLEIKGGGSGRTVAAPSVFIFPPSDEQLKSGTASVVCLLNNFYPREAKVQWKVDNALQSGNSQESVTEQDSKDSTYSLSSTLTLSKADYEKHKVYACEVTHQGLSSPVTKSFNRGEC
notes: Anti-human VEGF-A/anti-human PDGF-BB cross-over DVD-Ig (CO-DVD-Ig); also called PR-1571824
B2: CODV016 (bispecific antibody, human IgG1, kappa, L234A L235A)
heavy: B1 heavy
light: EVTLRESGPALVKPTQTLTLTCTFSGFSLSTYGMGVGWIRQPPGKALEWLANIWWDDDKYYNPSLKNRLTISKDTSKNQVVLTMTNMDPVDTATYYCARIESIGTTYSFDYWGQGTMVTVSSGGGGSDTVLTQSPATLSLSPGERATLSCRASESVSTHMHWYQQKPGQAPRLLIYGASNLESGVPARFSGSGSGTDFTLTISSLEPEDFAVYFCQQSWNDPFTFGQGTKLEIKGGSRTVAAPSVFIFPPSDEQLKSGTASVVCLLNNFYPREAKVQWKVDNALQSGNSQESVTEQDSKDSTYSLSSTLTLSKADYEKHKVYACEVTHQGLSSPVTKSFNRGEC
notes: Anti-human VEGF-A/anti-human PDGF-BB cross-over DVD-Ig (CO-DVD-Ig); also called PR-1571828
B3: CODV014 (bispecific antibody, human IgG1, kappa, L234A L235A)
heavy: EVQLVQSGSELKKPGASVKVSCKASGYTFTNYGMYWVRQAPGQGLEWMGWINTETGKPTYADDFKGRFVFSLDTSVSTAYLQISSLKAEDTAVYYCARTNYYYRSYIFYFDYWGQGTMVTVSSGGGGSEFVLTQSPGTLSLSPGERATLSCERSSGDIGDSYVSWYQQKPGQAPRLVIYADDQRPSGIPDRFSGSGSGTDFTLTISRLEPEDFAVYYCQSYDINIDIVFGGGTKVEIKGGSASTKGPSVFPLAPSSKSTSGGTAALGCLVKDYFPEPVTVSWNSGALTSGVHTFPAVLQSSGLYSLSSVVTVPSSSLGTQTYICNVNHKPSNTKVDKKVEPKSCDKTHTCPPCPAPEAAGGPSVFLFPPKPKDTLMISRTPEVTCVVVDVSHEDPEVKFNWYVDGVEVHNAKTKPREEQYNSTYRVVSVLTVLHQDWLNGKEYKCKVSNKALPAPIEKTISKAKGQPREPQVYTLPPSREEMTKNQVSLTCLVKGFYPSDIAVEWESNGQPENNYKTTPPVLDSDGSFFLYSKLTVDKSRWQQGNVFSCSVMHEALHNAYTQKSLSLSPGK
light: B1 light
notes: Anti-human VEGF-A/anti-human PDGF-BB cross-over DVD-Ig (CO-DVD-Ig); also called PR-1571826
B4: CODV015 (bispecific antibody, human IgG1, kappa, L234A L235A)
heavy: B1 heavy
light: EVTLRESGPALVKPTQTLTLTCTFSGFSLSTYGMGVGWIRQPPGKALEWLANIWWDDDKYYNPSLKNRLTISKDTSKNQVVLTMTNMDPVDTATYYCARIESIGTTYSFDYWGQGTMVTVSSGGGGSGGGDTVLTQSPATLSLSPGERATLSCRASESVSTHMHWYQQKPGQAPRLLIYGASNLESGVPARFSGSGSGTDFTLTISSLEPEDFAVYFCQQSWNDPFTFGQGTKLEIKGGSRTVAAPSVFIFPPSDEQLKSGTASVVCLLNNFYPREAKVQWKVDNALQSGNSQESVTEQDSKDSTYSLSSTLTLSKADYEKHKVYACEVTHQGLSSPVTKSFNRGEC
notes: Anti-human VEGF-A/anti-human PDGF-BB cross-over DVD-Ig (CO-DVD-Ig); also called PR-1571827
B5: CODV021 (bispecific antibody, human IgG1, kappa, L234A L235A)
heavy: B1 heavy with D163E
light: B4 light
notes: Anti-human VEGF-A/anti-human PDGF-BB cross-over DVD-Ig (CO-DVD-Ig); also called PR-1577053
B6: CODV011 (bispecific antibody, human IgG1, kappa, L234A L235A)
heavy: EVQLVQSGSELKKPGASVKVSCKASGYTFTNYGMYWVRQAPGQGLEWMGWINTETGKPTYADDFKGRFVFSLDTSVSTAYLQISSLKAEDTAVYYCARTNYYYRSYIFYFDYWGQGTMVTVSSGGGGSGGGGSEFVLTQSPGTLSLSPGERATLSCERSSGDIGDSYVSWYQQKPGQAPRLVIYADDQRPSGIPDRFSGSGSGTDFTLTISRLEPEDFAVYYCQSYDINIDIVFGGGTKVEIKGGGSGASTKGPSVFPLAPSSKSTSGGTAALGCLVKDYFPEPVTVSWNSGALTSGVHTFPAVLQSSGLYSLSSVVTVPSSSLGTQTYICNVNHKPSNTKVDKKVEPKSCDKTHTCPPCPAPEAAGGPSVFLFPPKPKDTLMISRTPEVTCVVVDVSHEDPEVKFNWYVDGVEVHNAKTKPREEQYNSTYRVVSVLTVLHQDWLNGKEYKCKVSNKALPAPIEKTISKAKGQPREPQVYTLPPSREEMTKNQVSLTCLVKGFYPSDIAVEWESNGQPENNYKTTPPVLDSDGSFFLYSKLTVDKSRWQQGNVFSCSVMHEALHNAYTQKSLSLSPGK
light: EVTLRESGPALVKPTQTLTLTCTFSGFSLSTYGMGVGWIRQPPGKALEWLANIWWDDDKYYNPSLKNRLTISKDTSKNQVVLTMTNMDPVDTATYYCARIESIGTTYSFDYWGQGTMVTVSSGGGGSGGGGSDTVLTQSPATLSLSPGERATLSCRASESVSTHMHWYQQKPGQAPRLLIYGASNLESGVPARFSGSGSGTDFTLTISSLEPEDFAVYFCQQSWNDPFTFGQGTKLEIKGGGSGRTVAAPSVFIFPPSDEQLKSGTASVVCLLNNFYPREAKVQWKVDNALQSGNSQESVTEQDSKDSTYSLSSTLTLSKADYEKHKVYACEVTHQGLSSPVTKSFNRGEC
notes: Anti-human VEGF-A/anti-human PDGF-BB cross-over DVD-Ig (CO-DVD-Ig); also called PR-1575521
B7: CODV017 (bispecific antibody, human IgG1, kappa, L234A L235A)
heavy: DTVLTQSPATLSLSPGERATLSCRASESVSTHMHWYQQKPGQAPRLLIYGASNLESGVPARFSGSGSGTDFTLTISSLEPEDFAVYFCQQSWNDPFTFGQGTKLEIKGGGSGGGEFVLTQSPGTLSLSPGERATLSCERSSGDIGDSYVSWYQQKPGQAPRLVIYADDQRPSGIPDRFSGSGSGTDFTLTISRLEPEDFAVYYCQSYDINIDIVFGGGTKVEIKGGGSGASTKGPSVFPLAPSSKSTSGGTAALGCLVKDYFPEPVTVSWNSGALTSGVHTFPAVLQSSGLYSLSSVVTVPSSSLGTQTYICNVNHKPSNTKVDKKVEPKSCDKTHTCPPCPAPEAAGGPSVFLFPPKPKDTLMISRTPEVTCVVVDVSHEDPEVKFNWYVDGVEVHNAKTKPREEQYNSTYRVVSVLTVLHQDWLNGKEYKCKVSNKALPAPIEKTISKAKGQPREPQVYTLPPSREEMTKNQVSLTCLVKGFYPSDIAVEWESNGQPENNYKTTPPVLDSDGSFFLYSKLTVDKSRWQQGNVFSCSVMHEALHNAYTQKSLSLSPGK
light: EVTLRESGPALVKPTQTLTLTCTFSGFSLSTYGMGVGWIRQPPGKALEWLANIWWDDDKYYNPSLKNRLTISKDTSKNQVVLTMTNMDPVDTATYYCARIESIGTTYSFDYWGQGTMVTVSSGEVQLVQSGSELKKPGASVKVSCKASGYTFTNYGMYWVRQAPGQGLEWMGWINTETGKPTYADDFKGRFVFSLDTSVSTAYLQISSLKAEDTAVYYCARTNYYYRSYIFYFDYWGQGTMVTVSSGGRTVAAPSVFIFPPSDEQLKSGTASVVCLLNNFYPREAKVQWKVDNALQSGNSQESVTEQDSKDSTYSLSSTLTLSKADYEKHKVYACEVTHQGLSSPVTKSFNRGEC
notes: Anti-human VEGF-A/anti-human PDGF-BB cross-over DVD-Ig (CO-DVD-Ig); also called PR-1571830

Target: T1, Human PDGF-BB (human, UniProt P01127 82-190)
T1 construct: also called hPDGF-BB
Assay: SPR (Biacore), method of Example 1.1
Protocol: (§1) Unreacted moieties on the biosensor surface were blocked with ethanolamine. For kinetic analysis, rate equations derived from the 1:1 Langmuir binding model were fitted simultaneously to multiple antigen injections (using global fit analysis) with the use of Scrubber 2 (BioLogic Software), Biacore Biaevaluation 4.0.1 software or Biacore T100 Evaluation software. Purified antibodies or DVD-Ig molecules were diluted in running buffer for capture across goat anti-human Fc reaction surfaces. Antibodies or DVD-Ig molecules to be captured as a ligand (1 μg/ml) were injected over reaction matrices at a flow rate of 10 μl/minute. During the assay, all measurements were referenced against the capture surface alone (i.e., with no captured antibody or DVD-Ig molecule). […] The equilibrium dissociation constant KD (M) of the reaction between antibodies and the target antigen was then calculated from the kinetic rate constants by the following formula: KD=Koff/Kₒₙ. Binding was recorded as a function of time and kinetic rate constants were calculated. In this assay, on-rates as fast as 10⁶M⁻¹s⁻¹ and off-rates as slow as 10⁻⁶ s⁻¹ could be measured.

T1 sequence (P01127 82-190 limits assumed): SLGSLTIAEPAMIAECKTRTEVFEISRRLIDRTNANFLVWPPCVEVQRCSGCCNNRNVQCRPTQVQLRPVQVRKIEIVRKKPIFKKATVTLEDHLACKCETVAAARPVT

With B1 as the binder, how does the Kd read?
Its Kd is 0.0015 nM.

What about the kon of the same binder?
Its kon is 7e+07 M⁻¹ s⁻¹.

B2 was tested. Which Kd did it give?
Its Kd is 0.0025 nM.

What about the kon of the same binder?
Its kon is 4.6e+07 M⁻¹ s⁻¹.

With B3 as the binder, how does the Kd read?
The Kd was 0.0024 nM.

And the kon?
Its kon is 5.5e+07 M⁻¹ s⁻¹.

B4 was tested. Which Kd did it give?
Its Kd is 0.0013 nM.

What about the kon of the same binder?
The kon was 7e+07 M⁻¹ s⁻¹.

How did the Kd turn out when B5 was run?
The Kd was 0.0019 nM.

And the kon?
Its kon is 6.1e+07 M⁻¹ s⁻¹.

For B6, which Kd is on record?
Its Kd is 0.0018 nM.

What about the kon of the same binder?
The kon was 3.8e+07 M⁻¹ s⁻¹.

How did the Kd turn out when B7 was run?
Its Kd is 0.0065 nM.

What about the kon of the same binder?
Its kon is 3e+07 M⁻¹ s⁻¹.

Target: T2, Human VEGF-A 165 (human, UniProt P15692 207-395)
T2 construct: also called hVEGF165
Assay: SPR (Biacore), method of Example 1.1
Protocol: as §1

T2 sequence (P15692 other isoform, or with tags, fused parts or gaps limits assumed): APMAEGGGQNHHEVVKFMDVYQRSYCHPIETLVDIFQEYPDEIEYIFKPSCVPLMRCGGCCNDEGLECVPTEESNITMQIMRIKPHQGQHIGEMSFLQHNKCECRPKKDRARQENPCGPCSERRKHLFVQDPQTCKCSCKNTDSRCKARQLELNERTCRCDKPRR

For B1, which Kd is on record?
The Kd was 0.028 nM.

What about the kon of the same binder?
Its kon is 2.7e+06 M⁻¹ s⁻¹.

How did the Kd turn out when B2 was run?
Its Kd is 0.02 nM.

And the kon?
Its kon is 2.9e+06 M⁻¹ s⁻¹.

For B3, which Kd is on record?
The Kd was 0.036 nM.

And the kon?
The kon was 2.2e+06 M⁻¹ s⁻¹.

What does the source list for B4?
Kd: 0.024 nM; kon: 2.7e+06 M⁻¹ s⁻¹

How did the Kd turn out when B5 was run?
The Kd was 0.018 nM.

What about the kon of the same binder?
Its kon is 3.8e+06 M⁻¹ s⁻¹.

Which results are given for B6?
Kd: 0.038 nM; kon: 1.1e+06 M⁻¹ s⁻¹

Which Kd does the source give for B7 here?
The Kd was 57 nM.
